# Experimental data reported in article PMC3170926 (Bioconjugate chemistry, 2011).
# Read-outs that look alike come from different tables or passages of the source.
# B1: c(RGDyK) peptide (peptide)
# peptide: cyclo(RGDYK)
# modifications: not fully specified (residue 4)
# Experiments:
# [1] = cited from earlier work; for thermodynamic stability constant log K: Ga(III) complex
# [2] = parameters: species or system SCID mice; settings: mouse, in vivo
# [3] = parameters: species or system SCID mice; settings: mouse, in vivo; remark: listed apart in the source
# [4] = parameters: species or system SCID mice; settings: mouse, in vivo; remark: listed apart in the source
# [5] = tested on: integrin αvβ3 positive PC-3 tumor xenografts; parameters: species or system SCID mice; settings: mouse, in vivo
# [6] = parameters: species or system SCID mice; settings: mouse, in vivo, tumor uptake
# [7] = tested on: integrin αvβ3 positive PC-3 tumor xenografts; parameters: species or system SCID mice; settings: mouse, in vivo; remark: listed apart in the source
# integrin αvβ3 = integrin αvβ3 (human (endogenous in U87MG), UniProt P06756 31-1048; P05106 27-788); test: radioligand binding
# Chain of integrin αvβ3 (P06756 31-1048, chain 1 of 2): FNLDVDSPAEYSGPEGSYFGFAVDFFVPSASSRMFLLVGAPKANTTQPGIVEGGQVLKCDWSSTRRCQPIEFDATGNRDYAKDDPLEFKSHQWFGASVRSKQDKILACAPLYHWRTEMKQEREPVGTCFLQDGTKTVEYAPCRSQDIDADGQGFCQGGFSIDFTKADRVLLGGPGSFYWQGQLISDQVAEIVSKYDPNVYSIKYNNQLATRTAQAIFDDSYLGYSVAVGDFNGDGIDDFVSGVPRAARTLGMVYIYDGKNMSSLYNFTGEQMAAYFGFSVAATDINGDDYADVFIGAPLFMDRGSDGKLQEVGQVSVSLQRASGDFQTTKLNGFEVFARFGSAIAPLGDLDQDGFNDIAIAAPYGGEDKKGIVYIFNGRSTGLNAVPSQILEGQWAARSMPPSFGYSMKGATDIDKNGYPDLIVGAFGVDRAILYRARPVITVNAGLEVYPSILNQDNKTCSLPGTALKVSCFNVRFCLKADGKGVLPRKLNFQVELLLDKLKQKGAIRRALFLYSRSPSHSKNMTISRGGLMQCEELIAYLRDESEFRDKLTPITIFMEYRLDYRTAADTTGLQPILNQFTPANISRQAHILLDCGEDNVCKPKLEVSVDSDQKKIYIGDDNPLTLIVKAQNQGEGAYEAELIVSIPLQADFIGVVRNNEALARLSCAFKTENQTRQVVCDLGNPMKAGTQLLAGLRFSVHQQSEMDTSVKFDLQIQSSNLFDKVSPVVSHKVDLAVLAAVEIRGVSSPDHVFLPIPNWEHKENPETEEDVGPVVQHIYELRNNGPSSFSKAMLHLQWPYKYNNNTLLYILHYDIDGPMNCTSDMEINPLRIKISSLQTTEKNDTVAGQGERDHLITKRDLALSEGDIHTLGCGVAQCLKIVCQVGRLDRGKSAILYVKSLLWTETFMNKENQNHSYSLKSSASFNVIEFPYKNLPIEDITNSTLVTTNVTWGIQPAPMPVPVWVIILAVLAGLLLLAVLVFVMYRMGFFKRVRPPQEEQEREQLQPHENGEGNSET
# Chain of integrin αvβ3 (P05106 27-788, chain 2 of 2): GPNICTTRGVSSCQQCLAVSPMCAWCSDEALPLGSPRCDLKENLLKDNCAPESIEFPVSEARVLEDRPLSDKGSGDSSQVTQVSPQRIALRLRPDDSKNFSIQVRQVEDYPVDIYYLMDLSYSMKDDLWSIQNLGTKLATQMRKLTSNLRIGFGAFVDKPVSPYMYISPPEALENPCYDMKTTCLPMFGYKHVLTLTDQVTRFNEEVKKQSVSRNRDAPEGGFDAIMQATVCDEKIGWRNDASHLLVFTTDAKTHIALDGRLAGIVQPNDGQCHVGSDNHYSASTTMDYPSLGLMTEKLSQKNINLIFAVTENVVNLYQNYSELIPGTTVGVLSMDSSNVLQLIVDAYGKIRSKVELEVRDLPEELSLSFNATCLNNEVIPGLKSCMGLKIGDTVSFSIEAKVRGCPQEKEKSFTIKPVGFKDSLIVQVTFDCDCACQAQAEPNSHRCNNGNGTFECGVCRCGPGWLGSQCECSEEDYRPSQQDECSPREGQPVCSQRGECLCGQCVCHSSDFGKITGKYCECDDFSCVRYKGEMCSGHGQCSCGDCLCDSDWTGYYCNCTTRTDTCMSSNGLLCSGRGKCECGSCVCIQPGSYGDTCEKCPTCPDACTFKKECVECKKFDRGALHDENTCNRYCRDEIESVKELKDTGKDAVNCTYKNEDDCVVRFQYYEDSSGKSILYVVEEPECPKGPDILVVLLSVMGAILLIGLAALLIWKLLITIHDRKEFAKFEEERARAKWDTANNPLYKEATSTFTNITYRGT
molecule,measurement,setting,value
O=C([O-])CN1CCN(CC(=O)[O-])CCN(CC(=O)O)CCN(CC(=O)[O-])CC1.[Ga+3] [DOTA complex with Ga(III)],thermodynamic stability constant log K,[1]; ref 39,21.33
O=C([O-])CN1CCN(CC(=O)[O-])CCN(CC(=O)[O-])CC1.[Ga+3] [Ga(III)-NOTA complex],acid-catalyzed dissociation,[1]; 6N HNO3 for 6 days,stay inert against the acid-catalyzed dissociation
same,thermodynamic stability constant log K,"[1]; ref 22, 24",30.98
same,thermodynamic stability constant log K,[1]; ref 24,30.98
O=C([O-])CN1CCN(CC(=O)[O-])CCN(C(CC(=O)O)C(=O)[O-])CC1.[Ga+3] (stereo not shown) [Ga-NODASA],thermodynamic stability constant log K,[1]; ref 24,30.9
"N=C(N)NCCC[C@@H]1NC(=O)[C@H](CCCCNC(=S)Nc2ccc(C[C@H]3CN(CC(=O)O)CCN(CC(=O)O)CCN3CC(=O)O)cc2)NC(=O)[C@@H](Cc2ccc(O)cc2)NC(=O)[C@H](CC(=O)O)NC(=O)CNC1=O [^68Ga-1a, metal not drawn]",metabolites in urine by radio-HPLC,[2],no metabolites were detected
same,half-life,"[3]; t1/2(α), distribution half-life",4 ± 1.1 min
same,half-life,"[3]; t1/2(β), terminal half-life",29.8 ± 7.1 min
same,tissue uptake at 0.5 h,[4]; kidney uptake,6.25 ± 0.61 %ID/g
same,tissue uptake at 2 h,[4]; kidney uptake,2.95 ± 0.76 %ID/g
same,tissue uptake at 0.5 h,[4]; liver uptake,1.98 ± 0.29 %ID/g
same,tissue uptake at 2 h,[4]; tumor uptake,1.63 ± 0.19 %ID/g
same,kidney uptake retained at 2 h p.i.,[5],less than 60%
same,tissue uptake at 2 h,[6],1.4 ± 0.36 %ID/g
same,tumor uptake retention at 2 h p.i.,[7],43%
B1,IC50,integrin αvβ3,204 nM
